In the supplement of paper PMC10567573:

B1: INTS3 (parent)
chain: YPPLEGHVRQGVFSSLNHIVEKRV
B2: MIA2 (parent)
chain: NSISSDKEATVPCTEILTEKKDTI

Variants of: B1
Assay: protein stability index of a GFP-peptide fusion (GPS, HEK-293T) (PSI 1-6); higher = more stable
Settings: c terminus: a fixed tail appended
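Note: lentivirally expressed fusions sorted by FACS into six bins by GFP to DsRed ratio, PSI derived from sequencing read proportions per bin multiplied by bin number.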

Protein stability index, by site and new letter:
K22: E 2.63; M 1.73; Q 2.23; C 1.43; W 2.14; R 2.75; F 3.12; A 2.29; D 2.2; G 1.92; L 2.33; N 2.46; T 2.23; P 3.01; S 2.09; Y 1.34; H 2.65
S15: P 1.54; A 2.23; I 1.64; Q 2.28; Y 1.33; E 2.17; V 2.92; C 1.69; F 2.32; L 1.86; D 2.95; M 2.43; G 2.58; R 2.12; K 2.31; N 2.4
R9: F 2.09; C 2.06; K 2.94; H 2.96; E 3.52; D 3.42; T 2.13; N 2.75; S 2.51; W 1.72; M 2.47; I 1.38; P 2.77; L 2.07; V 3.14; Q 3.28; A 3.24; Y 1.92
I19: Q 2.52; K 2.37; W 3.41; Y 2.07; D 3.11; P 2.47; T 2.88; S 2.53; L 1.83; R 3.04; A 3.17; F 2.31; M 3.33; N 3.23; H 2.65; V 2.52; G 2.57
S14: T 2.56; N 2.41; F 1.79; E 2.73; Y 1.66; G 2.61; H 2.63; C 1.5; V 2.29; M 2.07; P 2.22; Q 3.01; A 2.75; R 3.27; K 2.6; D 3.52; L 1.73
V24: K 2.4; P 2.74; H 2.29; D 3.16; L 2.78; W 2.68; S 2.58; T 2.09; I 2.69; G 3.08; F 1.99; M 2.06; N 2.83; Q 2.57; R 2.9; A 3.31; Y 1.95; C 2.01; E 3.32
Q10: V 2.28; Y 1.99; G 2.82; S 3.33; H 2.69; L 1.72; N 1.96; C 2.73; M 1.98; I 1.62; W 1.49; D 3.18; R 2.26; P 2.3; A 2.19; T 1.83; F 2.62
G11: I 1.87; E 2.88; T 2.27; Q 2.35; C 1.48; L 1.85; V 2.33; F 1.8; P 3.3; Y 1.85; A 2.31; S 2.54; D 2.59; N 2.29; K 2.93; R 2.18; H 2.29; M 1.79; W 1.34
V20: S 2.29; A 2.7; D 3.13; Y 2.27; E 3.08; T 2.48; P 2.64; F 2.78; R 2.9; I 2.04; H 2.36; K 2.43; M 2.7; N 2.34; W 2.02; G 1.76; C 2; L 2.2; Q 2.72
V8: C 2.86; A 2.46; E 3.53; W 1.78; I 2.38; H 2.48; F 2.23; S 3; Y 2.21; M 2.46; T 3; P 2.31; D 3.25; Q 2.85; R 2.75; G 2.19; N 2.55; L 2.13; K 2.84
V12: A 2.58; Y 2.54; P 3.19; H 2.53; T 3.27; G 2.54; C 2.21; M 2.36; R 3.5; S 2.11; K 3.63; F 2.69; L 3.31; E 3.46; N 3.15; I 2.37; D 3.44; Q 3.95
N17: L 2.46; W 2.26; G 2.46; H 2.21; S 2.29; K 2.28; A 2.48; T 2.04; Y 1.71; D 3.07; P 2.4; F 1.78; M 1.64; R 2.44; I 1.86; E 2.63; V 1.99; Q 2.34; C 1.86
R23: H 2.4; L 1.98; E 2.68; G 2.2; M 1.7; K 2.7; Q 2.83; N 2.6; A 2.19; F 1.81; P 2.39; I 2.17; S 2.67; D 2.83; W 2.62; T 2.53; V 1.85; Y 2.48; C 2.22
F13: Y 2.84; H 4.25; L 3.77; Q 3.16; I 3.6; T 2.98; V 3.7; R 3.32; E 3.99; S 3.65; G 3.33; W 2.4; D 4.31; C 2.98; N 3.46; M 3.36; A 3.55; K 3.16
H18: V 1.36; D 3.39; A 1.86; Q 2.76; F 1.97; P 3.04; C 2.01; M 3.03; L 1.77; S 2.65; W 1.39; I 1.99; R 3.42; K 2.86; E 2.91; N 2.78; Y 1.83; T 2.16
L16: K 3.35; A 3.33; H 2.94; P 2.93; Q 3.01; T 2.77; C 2.24; W 2.1; F 2.14; V 3.1; D 4.2; R 4.03; E 3.65; I 2.31; S 2.49; M 2.39; N 3.3; G 3.18; Y 2.22
H7: L 2.2; S 2.97; K 2.21; Y 1.47; T 2.56; R 2.22; Q 2.36; N 3.13; P 2.01; I 2.21; V 2.37
E21: R 2.45; A 2.23; L 2.29; V 2.48; T 2.54; I 1.74; D 3.35; N 2.21; H 2.86; G 2.68; P 2.26; Q 1.79; Y 2.23; M 2.75; W 1.95; S 2.05; F 2.72; C 2.23; K 2.26

Variants of: B2
Assay: as above
Settings: c terminus: a fixed tail appended

Protein stability index, by site and new letter:
P12: V 5.35
E15: L 4.57; K 4.92
I16: A 5.53
E8: I 5.32
E19: M 5.08
N1: I 4.79
D6: V 5.14
V11: G 5.07
T10: S 5.72
S5: V 5.46
C13: E 5.57
K21: A 5.37; Y 4.84
S2: Y 4.49
